# Laboratory results: paper PMC8461307 (2021)
# B1: recombinant wild-type Factor H-related protein 5 (FHR-5WT) (natural protein)
# chain: EGTLCDFPKIHHGFLYDEEDYNPFSQVPTGEVFYYSCEYNFVSPSKSFWTRITCTEEGWSPTPKCLRMCSFPFVKNGHSESSGLIHLEGDTVQIICNTGYSLQNNEKNISCVERGWSTPPICSFTKGECHVPILEANVDAQPKKESYKVGDVLKFSCRKNLIRVGSDSVQCYQFGWSPNFPTCKGQVRSCGPPPQLSNGEVKEIRKEEYGHNEVVEYDCNPNFIINGPKKIQCVDGEWTTLPTCVEQVKTCGYIPELEYGYVQPSVPPYQHGVSVEVNCRNEYAMIGNNMITCINGIWTELPMCVATHQLKRCKIAGVNIKTLLKLSGKEFNHNSRIRYRCSDIFRYRHSVCINGKWNPEVDCTEKREQFCPPPPQIPNAQNMTTTVNYQDGEKVAVLCKENYLLPEAKEIVCKDGRWQSLPRCVESTAYCGPPPSINNGDTTSFPLSVYPPGSTVTYRCQSFYKLQGSVTVTCRNKQWSEPPRCLDPCVVSEENMNKNNIQLKWRNDGKLYAKTGDAVEFQCKFPHKAMISSPPFRAICQEGKFEYPICE
# Molecular target: purified C3b (UniProt P01024 23-667; P01024 749-1663)
# Sequence (P01024 23-667, chain 1 of 2): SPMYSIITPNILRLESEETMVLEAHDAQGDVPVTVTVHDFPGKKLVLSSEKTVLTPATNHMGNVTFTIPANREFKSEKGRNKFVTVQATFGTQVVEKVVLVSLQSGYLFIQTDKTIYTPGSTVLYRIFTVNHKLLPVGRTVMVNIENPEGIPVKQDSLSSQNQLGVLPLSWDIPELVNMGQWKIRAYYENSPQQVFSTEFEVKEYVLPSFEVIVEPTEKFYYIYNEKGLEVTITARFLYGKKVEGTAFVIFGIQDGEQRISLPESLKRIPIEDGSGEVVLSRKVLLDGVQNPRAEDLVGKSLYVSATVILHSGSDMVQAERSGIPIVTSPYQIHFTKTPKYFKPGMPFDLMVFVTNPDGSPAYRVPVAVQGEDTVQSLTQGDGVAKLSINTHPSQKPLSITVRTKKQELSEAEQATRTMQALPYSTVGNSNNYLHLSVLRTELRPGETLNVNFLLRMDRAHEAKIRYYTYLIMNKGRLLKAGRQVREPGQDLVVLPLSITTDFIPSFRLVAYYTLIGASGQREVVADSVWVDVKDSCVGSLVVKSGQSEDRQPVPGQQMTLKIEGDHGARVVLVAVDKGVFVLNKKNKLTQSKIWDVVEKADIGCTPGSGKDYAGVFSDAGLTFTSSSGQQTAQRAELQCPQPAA
# Sequence (P01024 749-1663, chain 2 of 2): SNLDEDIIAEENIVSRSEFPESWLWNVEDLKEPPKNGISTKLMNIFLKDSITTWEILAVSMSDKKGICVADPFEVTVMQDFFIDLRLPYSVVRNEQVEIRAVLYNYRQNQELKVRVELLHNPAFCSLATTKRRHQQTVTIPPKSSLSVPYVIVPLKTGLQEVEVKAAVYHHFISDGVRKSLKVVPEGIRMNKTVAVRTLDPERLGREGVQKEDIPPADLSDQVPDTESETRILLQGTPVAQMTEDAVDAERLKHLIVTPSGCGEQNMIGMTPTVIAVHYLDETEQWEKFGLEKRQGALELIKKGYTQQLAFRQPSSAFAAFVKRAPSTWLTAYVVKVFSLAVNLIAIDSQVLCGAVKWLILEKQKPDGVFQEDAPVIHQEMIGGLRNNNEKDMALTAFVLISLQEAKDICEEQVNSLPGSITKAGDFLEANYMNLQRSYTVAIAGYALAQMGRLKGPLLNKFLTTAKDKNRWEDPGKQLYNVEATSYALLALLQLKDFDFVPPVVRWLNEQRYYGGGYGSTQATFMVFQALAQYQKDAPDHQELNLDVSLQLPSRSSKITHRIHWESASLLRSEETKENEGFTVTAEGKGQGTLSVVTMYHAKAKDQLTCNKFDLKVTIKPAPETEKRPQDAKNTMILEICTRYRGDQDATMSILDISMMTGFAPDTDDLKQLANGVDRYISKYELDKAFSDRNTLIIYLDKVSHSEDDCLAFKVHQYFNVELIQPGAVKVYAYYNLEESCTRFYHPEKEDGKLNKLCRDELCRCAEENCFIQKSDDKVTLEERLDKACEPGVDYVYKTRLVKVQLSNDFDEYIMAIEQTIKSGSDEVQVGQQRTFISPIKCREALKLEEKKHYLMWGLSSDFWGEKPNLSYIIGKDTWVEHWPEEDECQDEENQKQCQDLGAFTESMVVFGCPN
# Experiment: SPR
binder,measurement,value
B1,koff,0.141 s⁻¹
